# In patent publication US11994512B2, “Single-cell genomic methods to generate ex vivo cell systems that recapitulate in vivo biology with improved fidelity” (Massachusetts Institute of Technology, priority 2018, dated 2024):
# Test system: intracellular proteome of ENR+CD and ENR organoids
# Assay: LC-MS/MS TMT proteomics of ENR+CD versus ENR organoids
# Type: cell-based, C57BL/6 mice
# Details: for Average logFC: ENR+CD versus ENR organoids, sample pairs in aggregate (n=4, 2 technical replicates from two biological donors); for M1-1 Log2 Median Normalized / M1-2 Log2 Median Normalized / M2-1 Log2 Median Normalized / M2-2 Log2 Median Normalized: protein abundance ratio ENR+CD versus ENR organoids, LC-MS/MS TMT proteomics; for M1-1 Log2 Median Normalized: sample pair M1-1; for M1-2 Log2 Median Normalized: sample pair M1-2; for M2-1 Log2 Median Normalized: sample pair M2-1; for M2-2 Log2 Median Normalized: sample pair M2-2; for change: up = enriched in ENR+CD, down = enriched in ENR, FDR<0.05 and log fold change cut-off
Molecule,Average logFC,M1-1 Log2 Median Normalized,M1-2 Log2 Median Normalized,M2-1 Log2 Median Normalized,M2-2 Log2 Median Normalized,change
"Q6DI86 (protein, UniProt Q6DI86 1-829, looked up, full-length) MFRLRSISLLSWRAFPLRPFSCESLITQMQKCTNEEQVFDLIETNTATLSEQQVGCAFNVLWQFQKQKTVLEKNVDHVRNHPQFLTLCSITTNHIPAMSDATLVDVLYSIKQFAVESHHPLIEALVTEAWKRLERFDTNVLSIFSTCLADQHLYFSPLMGKIADIVNRRLETIQDLRALSVLMVSISSLISPCFQERLVIRTELLFDTVNSSKVNIARRILLFLRNVKYSHYPLLERCNQVFIRNMSHLDLESISKILNLYQFLQFHSFEFVEAARGRLAEMTLPSDHPESFVRLFAALGPVARPEIKKQLKSTILLLSEELSSQQALIVLGAMEDMESRNSHLLKKIVSVLYKHLDNYKSIELLKIIQALTFLHFQSKELFMKLRELLLSRLEASVIPSEISVLVSALSMLPHPHLSETAVSRIEAVLPQCDFRELNDLVVYLMRWIQSDLVCLASTTGKQLDLLQKLDQLGRHRLQQSTNLDLLWEELKSLKGEWLHESLVEESIAALLRFMDEIDYSNIAKVASFLSRTNYLNTLLLDRIASVAIQQVEKIHPFSVLAIILPFSILNYDPPQKDEFFGACVQCCNSYLGTLDPGTLVFLGFSLAVLEYFPEDLLKKMFNIEFLARLDSQLEILPSSLSARIQFRLMELNRAVCLECPELQVPWFHDRFCQRQFNKDTGVMNGAQQQIYKMLAEVLGGHQCVKPSALSPYYHTVGFECILDKRKKPLPYESHSIAPRKSLGMHWDSRVEPRLPPEAERIAIELLDVRAFCSNIPHLKGKSAMKKRHLEILGYRVIQIPYFEWNSMAMSTKDARMDYLREHLFGEGKS",1.459,1.46,1.066,1.4225,2.251,up
"Q6UQ17 (protein, UniProt Q6UQ17 1-1335, looked up, full-length) MDGVHLGENLEDKDTEFTWEVKANDRTYHKQFKKKGFLCWRQKKYKSNAIHTAKYNIFSFLPLNLYEQFHRMSNLYFLFIIILQGIPEISTLPWFTLFAPLVCLFVIRATRDLVDDIGRHRSDKIINNRPCQILRGKSFLWKKWKNLCVGDVVCLSKDSIVPADLLLLASTEPSSLCYVETADIDGETNLKFRQALTVTHHELTSPKKMASFQGTVTCEEPNSRMHHFVGSLEWNSRKYPLDIGNLLLRGCKIRNTDTCYGLVIYAGLDTKIMKNCGKIHLKRTKLDLMMNKLVALIFLSLVIASLLLTVGFTFMVKQFKAKHYYMSPTHGRSDAMESFFIFWGFLILLSVMVPMAMFIIAEFIYLGNSIFINWDLNMYYEPLDMPAKARSTSLNDQLGQVQYIFSDKTGTLTQNIMTFKKCCINGCIYDSDDEHGTLRKRNPYAWNPFADGKLQFYNKELESLVQGRQDRAVQEFWRLLAICHTVMVQEKDNQLLYQAASPDEEALVTAARNFGYVFLSRTQDTITLVELGEERVYQVLAMMDFNSVRKRMSVLVRNPEGSICLYTKGADTVILERLRSKGVMEATTEEVLAAFAEQTLRTLCLAYKDVEEDAYKEWEPEHQEAALLLQNRAQALHQVYNKMEQNLQLLGATAIEDKLQDGVPETIKCLKKGNIKIWVLTGDKPETAVNIGFACQLLSENMIILEDKDINQVLERYWEDNVHQKAFKMMTHHNMALVINGEFLDQLLLSLRKEPRALVQNAVVDEVAQEPVVSALDFLQKRRISQMWRNAGPSLGTSHSADSKIRESPEVQRERAFVDLASKCQAVICCRVTPKQKALVVALVKKYQQVVTLAIGDGANDVNMIKTADIGVGLAGQEGMQAVQNSDYVLAQFCYLQRLLLVHGRWSYMRVCKFLRYFFYKTVASMMAQIWFSLVNGFSAQPLYEGWFLALFNLLYSTLPVLYIGLFEQDVTAEKSLKMPELYMAGQKGELFNYSIFMQAITHGTITSMINFFVTVMVSSDMSKAGSSHDYQSLGVLVAISSLLSVTLEVMLVVKYWTLLFVGAVVLSLSSYVLMTSLTQSLWMYRISPKTFPFLFADYNVLFEPCSLLLIVLNVALNVLPMLALRTIHRTVLKQRPKGEEEAPSEEVAVEPAMRHLRRGIPARRSSYAFSHREGYANLITQGTILRRQTHVDDSDGGTVCESLNPPEEDIPLQNKDSVFNPRKISILAKKRRHFFGKGSQEEVHPNTSSQTMEKQPTIHRDSETQKLPTTTSATSGKLLPSASEDEAFYSVASQYTLASQPKHTDVHSSFWKSPLWRDSASSSPSQLEVPRKQS",1.464,1.126,1.134,1.7555,1.841,up
"Q6ZQL4 (protein, UniProt Q6ZQL4 1-677, looked up, full-length) MAAGGGGSYDPLAPAGVPCAFSPDSQAYFALASSDGQLRVWETANNRLHQEYVPSAHLSGTCTCLAWAPARLQAKESHQRKKRKSEVTGTKDQADLLALGTAVGSILLYSTVRGELHSKLTSGGHENRVNCIQWHQDNDCLYSCSDDKYIVEWSTQTCKVKCKWKGDNSSVSSLCISPDGKMLLSAGRTIKLWVLETKEVYRHFTGHATPVSSLRFTTIRPNESQPSDGITGLYFLSGAVHDRLLNVWQVRSENKEKSAVMSFTVTDEPVYVDLTLSENKEEPVKLAVVCRDGQVHLFEHILNGHCKKPLTSNCTIQIATPGKGKKVTPKPIPILAASFCLDKMSLLLVYGNWFQPTIERVALNSKDTHICLERDISNCWAPTVETAITKVKTPVMNSEAKVLVPGIPGHHAPIKLPPAQPKEAENKRKLGSTEATIEERLGAMDLDRKGRKDDLQTNSFAVLLTQGLESNDFEILNKVLQTKNVNLIKRTVLRIPLRVVIPLLQELTKRLQGHPNSAALMIQWLKCVLTIHASYLSTLPDLVEQLGTLYQLMESRVKTFQKLSNLHGKLILLVTQVTASEKSKKMTSPGQKAKLVYEEESSEEESDDEVPEKDSDDNWDEDEDKDSEKDEGVDEDNEEEDEDMEDKEENEEDREVSSEKELNGDSDLDPENESEEE",−1.143,−1.562,−0.715,−0.9435,−1.351,down
"Q64669 (protein, UniProt Q64669 1-274, looked up, full-length) MAARRALIVLAHSEKTSFNYAMKEAAVEALKKRGWEVLESDLYAMNFNPIISRNDITGELKDSKNFQYPSESSLAYKEGRLSPDIVAEHKKLEAADLVIFQFPLQWFGVPAILKGWFERVLVAGFAYTYAAMYDNGPFQNKKTLLSITTGGSGSMYSLQGVHGDMNVILWPIQSGILRFCGFQVLEPQLVYSIGHTPPDARMQILEGWKKRLETVWEETPLYFAPSSLFDLNFQAGFLMKKEVQEEQKKNKFGLSVGHHLGKSIPADNQIKARK",−1.573,−1.603,−2.001,−1.5715,−0.844,down
"Q6J9G1 (protein, UniProt Q6J9G1 1-429, looked up, full-length) MGEKGHLSRVLLECSLSDKLCVVREKQYEVIIVPALLVGGFLILLAIILWLFIRGQRSQRQSPGPRGTASVPASRGRSQEAAGHGEKVLLPLKETSVEGFLRAATPRLAKLQVPREQLLEVLEQIHSGSCGTLYHATMTTKDHPKPKSVVLKALEDPVGLQEVQDFIGRIQFYQYLGKHKNLVQLEGCCTERLPLYMMLEDVVPGDLLSFLWTCRRDVMTMDGLLYDLTEKQIYHIGKQILLALEFLQEKHLFHGDVAARNILIQSDLTPKLCHLGLAYEVHAHGAISSARSSTIPLKWLAPERLLLRPASIRGDIWSFGILLYEMVTLGAPPYPEVPPTSILQYLQRKKIMKRPSSCSHAMYNIMKCCWRWSEDSRPLLGQLLQRLEAASRSADDKAVLQVPELVVPELYADVAGIRAESISYSFSVL",1.195,1.631,1.194,0.7015,1.233,up
"Q6PCN3 (protein, UniProt Q6PCN3 1-1308, looked up, full-length) MQCLAAALKDETNMSGGGEQADILPANYVVKDRWKVLKKIGGGGFGEIYEAMDLLTRENVALKVESAQQPKQVLKMEVAVLKKLQGKDHVCRFIGCGRNEKFNYVVMQLQGRNLADLRRSQPRGTFTLSTTLRLGKQILESIEAIHSVGFLHRDIKPSNFAMGRLPSTYRKCYMLDFGLARQYTNTTGDVRPPRNVAGFRGTVRYASVNAHKNREMGRHDDLWSLFYMLVEFAVGQLPWRKIKDKEQVGMIKEKYEHRMLLKHMPSEFHLFLDHIASLDYFTKPDYQLIMSVFENSMKERGIAENEAFDWEKAGTDALLSTSTSTPPQQNTRQTAAMFGVVNVTPVPGDLLRENTEDVLQGEHLSDQENAPPILPGRPPEGLGPGPHLVPHPGGPEAEVWEETDVNRNKLRINIGKTPCVEEEQSRGVGVPSSPVRAPPDSPTTPVRSLCYRRVNSPESERLSTAADGRVELQERRSRMDLPGSPSRQACSSQPAQMLSVDTGHADRQASGRMDVSASVEQEALSNAFRSVPLAEEEDFDSKEWVIIDKETELKDFPPGAEPSTSGTTDEEPEELRPLPEEGEERRRLGTEPTVRPRGRGMHTLTEEDPRQMLPQPAPPQLSQADGRSETSQPPTPGSPSHSPLHSGPRPRRRESDPTGPQRQVFSVAPPFEVNGLPRAVPLALPYQDFKRDLSDYRERARLLNRVRRVGFSHMLLTAPQVPLAPFQPQANGKEGEEEEEEEEEEEEEEEEEEEEEEEEEEEEEEEEEAGALGEVLGPRSGSSSEGSERSTERSQEGAPSTLLADDQKEARGRASMADGDLEPEEGSKTLVLVSPGDMKKSPVTAELAPDPDLGTLAALTPQHERPQPTGSQLDVSEPGTLSSILKSEPKPSGPGAGGGVGLVAPGAGVTAVTSPFTKVERTFVHIAEKSHLNVMSSGGQASRPEELSTGGELGLEVLSEGGIAEEGAPAPLENGMALAGLDGTEMESCALSGPPGETPSEVVTDSLPNGPALADGPAPASQQEPVTKKGTTISPSRHAMPGSRPRSRIPVLLSEEDTGSEPSGSLSAKERWSKRARPQQDLARLVMEKRQGRLLLRLASGASSSSSEEQRRASETLSGTGSEEDTPASEPTTALPRKAVRAATTRSRIPRPISVSMPVEGQQLPGRPHGAASATDLAITSRLQLQKPSGLAPAADLRPKQSASRGPGPGRAQVSKPAAPRSPGLPASTARHPSGSPRSQSLSRKESSSPSHQARPGVPPSRGVLQVRSQPEASPVAPKKGPKGKQLQTQRAATKGRAVVSEGRPGAR",1.301,0.917,1.005,1.5695,1.711,up
